Measured values reported in the supplement of paper PMC11246515.
± gives the standard deviation of the averaged measurements.

Assay: total protein half-life in vivo (active degradation + dilution); higher = more stable protein
[1] = E. coli NCM3722 delta-clpP delta-lon delta-hslV, growth: N-lim chemostat, doubling time 6 h
[2] = E. coli NCM3722 delta-clpP, growth: N-lim chemostat, doubling time 6 h
[3] = E. coli NCM3722 delta-hslV, growth: N-lim chemostat, doubling time 6 h
[4] = E. coli NCM3722 delta-lon, growth: N-lim chemostat, doubling time 6 h
[5] = E. coli NCM3722 delta-smpB, growth: N-lim chemostat, doubling time 6 h
[6] = wild type E. coli NCM3722, growth: C-lim chemostat, doubling time 3 h
[7] = wild type E. coli NCM3722, growth: C-lim chemostat, doubling time 6 h
[8] = wild type E. coli NCM3722, growth: C-lim chemostat, doubling time 12 h
[9] = wild type E. coli NCM3722, growth: N-lim chemostat, doubling time 6 h
[10] = wild type E. coli NCM3722, growth: N-lim chemostat, doubling time 12 h
[11] = wild type E. coli NCM3722, growth: P-lim chemostat, doubling time 6 h
[12] = wild type E. coli NCM3722, growth: P-lim chemostat, doubling time 12 h

## MKIKTRFAPSPTGYLHVGGARTALYSWLFARNHGGEFVLRIEDTDLERSTPEAIEAIMDGMNWLSLEWDEGPYYQTKRFDRYNAVIDQMLEEGTAYKCYCSKERLEALREEQMAKGEKPRYDGRCRHSHEHHADDEPCVVRFANPQEGSVVFDDQIRGPIEFSNQELDDLIIRRTDGSPTYNFCVVVDDWDMEITHVIRGEDHINNTPRQINILKALKAPVPVYAHVSMINGDDGKKLSKRHGAVSVMQYRDDGYLPEALLNYLVRLGWSHGDQEIFTREEMIKYFTLNAVSKSASAFNTDKLLWLNHHYINALPPEYVATHLQWHIEQENIDTRNGPQLADLVKLLGERCKTLKEMAQSCRYFYEDFAEFDADAAKKHLRPVARQPLEVVRDKLAAITDWTAENVHHAIQATADELEVGMGKVGMPLRVAVTGAGQSPALDVTVHAIGKTRSIERINKALDFIAERENQQ
[1]
  total protein half-life in vivo: 5.79 ± 0.64 h
[2]
  total protein half-life in vivo: 5.2 ± 0.2 h
[3]
  total protein half-life in vivo: 5.5 ± 0.56 h
[4]
  total protein half-life in vivo: 5.42 ± 0.13 h
[5]
  total protein half-life in vivo: 5.06 ± 0.56 h
[6]
  total protein half-life in vivo: 3.22 ± 0.47 h
[7]
  total protein half-life in vivo: 6.28 ± 0.22 h
[8]
  total protein half-life in vivo: 12.5 ± 0.98 h
[9]
  total protein half-life in vivo: 5.34 ± 0.34 h
[10]
  total protein half-life in vivo: 9.3 ± 0.16 h
[11]
  total protein half-life in vivo: 6.23 ± 0.25 h
[12]
  total protein half-life in vivo: 12.2 ± 0.93 h

## MKILLIEDNQRTQEWVTQGLSEAGYVIDAVSDGRDGLYLALKDDYALIILDIMLPGMDGWQILQTLRTAKQTPVICLTARDSVDDRVRGLDSGANDYLVKPFSFSELLARVRAQLRQHHALNSTLEISGLRMDSVSHSVSRDNISITLTRKEFQLLWLLASRAGEIIPRTVIASEIWGINFDSDTNTVDVAIRRLRAKVDDPFPEKLIATIRGMGYSFVAVKK
[1]
  total protein half-life in vivo: 5.88 ± 0.19 h
[2]
  total protein half-life in vivo: 4.67 ± 0.22 h
[3]
  total protein half-life in vivo: 5.28 ± 1 h
[4]
  total protein half-life in vivo: 4.77 ± 0.42 h
[5]
  total protein half-life in vivo: 4.91 ± 0.52 h
[6]
  total protein half-life in vivo: 2.99 ± 0.052 h
[8]
  total protein half-life in vivo: 10.4 ± 0.76 h
[9]
  total protein half-life in vivo: 4.11 ± 0.2 h
[10]
  total protein half-life in vivo: 7.422 ± 0.042 h
[11]
  total protein half-life in vivo: 5.64 ± 0.063 h
[12]
  total protein half-life in vivo: 11.9 ± 0.75 h

## MKIRALLVAMSVATVLTGCQNMDSNGLLSSGAEAFQAYSLSDAQVKTLSDQACQEMDSKATIAPANSEYAKRLTTIANALGNNINGQPVNYKVYMAKDVNAFAMANGCIRVYSGLMDMMTDNEVEAVIGHEMGHVALGHVKKGMQVALGTNAVRVAAASAGGIVGSLSQSQLGNLGEKLVNSQFSQRQEAEADDYSYDLLRQRGISPAGLATSFEKLAKLEEGRQSSMFDDHPASAERAQHIRDRMSADGIK
[1]
  total protein half-life in vivo: 5.03 ± 0.95 h
[2]
  total protein half-life in vivo: 5.9 ± 0.43 h
[3]
  total protein half-life in vivo: 5.87 ± 0.4 h
[5]
  total protein half-life in vivo: 3.99 ± 0.98 h
[6]
  total protein half-life in vivo: 2.69 ± 0.21 h
[7]
  total protein half-life in vivo: 5.11 ± 0.41 h
[8]
  total protein half-life in vivo: 8.35 ± 1.9 h
[9]
  total protein half-life in vivo: 6.22 ± 0.35 h
[10]
  total protein half-life in vivo: 10.2 ± 2.9 h
[11]
  total protein half-life in vivo: 3.16 ± 0.24 h
[12]
  total protein half-life in vivo: 9.05 ± 5.4 h

## MKISLVVPVFNEEEAIPIFYKTVREFEELKSYEVEIVFINDGSKDATESIINALAVSDPLVVPLSFTRNFGKEPALFAGLDHATGDAIIPIDVDLQDPIEVIPHLIEKWQAGADMVLAKRSDRSTDGRLKRKTAEWFYKLHNKISNPKIEENVGDFRLMSRDVVENIKLMPERNLFMKGILSWVGGKTDIVEYVRAERIAGDTKFNGWKLWNLALEGITSFSTFPLRIWTYIGLVVASVAFIYGAWMILDTIIFGNAVRGYPSLLVSILFLGGIQMIGIGVLGEYIGRTYIETKKRPKYIIKRVKK
[1]
  total protein half-life in vivo: 6.26 ± 0.44 h
[2]
  total protein half-life in vivo: 6.88 ± 1.2 h
[3]
  total protein half-life in vivo: 7.42 ± 0.82 h
[5]
  total protein half-life in vivo: 6.23 ± 0.34 h
[6]
  total protein half-life in vivo: 3.54 ± 0.22 h
[7]
  total protein half-life in vivo: 6.05 ± 0.38 h
[9]
  total protein half-life in vivo: 6.19 ± 0.16 h
[11]
  total protein half-life in vivo: 6.08 ± 0.13 h
[12]
  total protein half-life in vivo: 13.7 ± 0.2 h

## MKISRETLHQLIENKLCQAGLKREHAATVAEVLVYADARGIHSHGAVRVEYYAERISKGGTNREPEFRLEETGPCSAILHADNAAGQVAAKMGMEHAIKTAQQNGVAVVGISRMGHSGAISYFVQQAARAGFIGISMCQSDPMVVPFGGAEIYYGTNPLAFAAPGEGDEILTFDMATTVQAWGKVLDARSRNMSIPDTWAVDKNGVPTTDPFAVHALLPAAGPKGYGLMMMIDVLSGVLLGLPFGRQVSSMYDDLHAGRNLGQLHIVINPNFFSSSELFRQHLSQTMRELNAITPAPGFNQVYYPGQDQDIKQRKAAVEGIEIVDDIYQYLISDALYNTSYETKNPFAQ
[6]
  total protein half-life in vivo: 2.88 h
[7]
  total protein half-life in vivo: 5.52 ± 0.59 h
[12]
  total protein half-life in vivo: > 16 h

## MKITKITTYRLPPRWMFLKIETDEGVVGWGEPVIEGRARTVEAAVHELGDYLIGQDPSRINDLWQVMYRAGFYRGGPILMSAIAGIDQALWDIKGKVLNAPVWQLMGGLVRDKIKAYSWVGGDRPADVIDGIKTLREIGFDTFKLNGCEELGLIDNSRAVDAAVNTVAQIREAFGNQIEFGLDFHGRVSAPMAKVLIKELEPYRPLFIEEPVLAEQAEYYPKLAAQTHIPLAAGERMFSRFDFKRVLEAGGISILQPDLSHAGGITECYKIAGMAEAYDVTLAPHCPLGPIALAACLHIDFVSYNAVLQEQSMGIHYNKGAELLDFVKNKEDFSMVGGFFKPLTKPGLGVEIDEAKVIEFSKNAPDWRNPLWRHEDNSVAEW [Q6BF17]
[1]
  total protein half-life in vivo: 3.02 ± 0.17 h
[2]
  total protein half-life in vivo: 1.75 ± 0.17 h
[5]
  total protein half-life in vivo: 1.27 ± 0.18 h
[6]
  total protein half-life in vivo: 2.67 ± 0.21 h
[7]
  total protein half-life in vivo: 3.47 ± 0.4 h
[8]
  total protein half-life in vivo: 5.79 ± 0.88 h
[9]
  total protein half-life in vivo: 2.5 h
[10]
  total protein half-life in vivo: 1.84 h
[11]
  total protein half-life in vivo: 4.36 ± 0.18 h
[12]
  total protein half-life in vivo: 7.25 ± 0.96 h

## MKIVIAPDSYKESLSASEVAQAIEKGFREIFPDAQYVSVPVADGGEGTVEAMIAATQGAERHAWVTGPLGEKVNASWGISGDGKTAFIEMAAASGLELVPAEKRDPLVTTSRGTGELILQALESGATNIIIGIGGSATNDGGAGMVQALGAKLCDANGNEIGFGGGSLNTLNDIDISGLDPRLKDCVIRVACDVTNPLVGDNGASRIFGPQKGASEAMIVELDNNLSHYAEVIKKALHVDVKDVPGAGAAGGMGAALMAFLGAELKSGIEIVTTALNLEEHIHDCTLVITGEGRIDSQSIHGKVPIGVANVAKKYHKPVIGIAGSLTDDVGVVHQHGIDAVFSVLTSIGTLDEAFRGAYDNICRASRNIAATLAIGMRNAG
[1]
  total protein half-life in vivo: 3.21 ± 0.32 h
[2]
  total protein half-life in vivo: 2.26 ± 0.32 h
[4]
  total protein half-life in vivo: 2.05 h
[5]
  total protein half-life in vivo: 3.17 ± 1.2 h
[6]
  total protein half-life in vivo: 3.01 ± 0.68 h
[7]
  total protein half-life in vivo: 5.02 ± 1.3 h
[8]
  total protein half-life in vivo: 9.27 ± 0.37 h
[9]
  total protein half-life in vivo: 2.08 ± 0.076 h
[10]
  total protein half-life in vivo: 10.9 h
[11]
  total protein half-life in vivo: 5.89 ± 0.76 h
[12]
  total protein half-life in vivo: 10.4 ± 2.5 h

## MKKAGLLFLVMIVIAVVAAGIGYWKLTGEESDTLRKIVLEECLPNQQQNQNPSPCAEVKPNAGYVVLKDLNGPLQYLLMPTYRINGTESPLLTDPSTPNFFWLAWQARDFMSKKYGQPVPDRAVSLAINSRTGRTQNHFHIHISCIRPDVRKQLDNNLANISSRWLPLPGGLRGHEYLARRVTESELVQRSPFMMLAEEVPEAREHMGRYGLAMVRQSDNSFVLLATQRNLLTLNRASAEEIQDHQCEILR
[1]
  total protein half-life in vivo: 6.38 ± 0.31 h
[2]
  total protein half-life in vivo: 6.726 ± 0.048 h
[3]
  total protein half-life in vivo: 6.364 ± 0.022 h
[5]
  total protein half-life in vivo: 6.59 ± 0.21 h
[6]
  total protein half-life in vivo: 3.17 ± 0.07 h
[7]
  total protein half-life in vivo: 7.09 ± 1 h
[8]
  total protein half-life in vivo: 12.8 ± 0.32 h
[9]
  total protein half-life in vivo: 6.45 ± 0.28 h
[11]
  total protein half-life in vivo: 6.13 ± 0.2 h
[12]
  total protein half-life in vivo: 13.6 ± 0.51 h
